Publication PMC3985488
Positions count from the first letter of the chain named.

Key:
[1] = molecular target: T1, Dpo4 Y274W (Sulfolobus solfataricus, UniProt Q97W02 1-352, C31S;Y274W); experiment: steady-state Trp fluorescence
T1 sequence: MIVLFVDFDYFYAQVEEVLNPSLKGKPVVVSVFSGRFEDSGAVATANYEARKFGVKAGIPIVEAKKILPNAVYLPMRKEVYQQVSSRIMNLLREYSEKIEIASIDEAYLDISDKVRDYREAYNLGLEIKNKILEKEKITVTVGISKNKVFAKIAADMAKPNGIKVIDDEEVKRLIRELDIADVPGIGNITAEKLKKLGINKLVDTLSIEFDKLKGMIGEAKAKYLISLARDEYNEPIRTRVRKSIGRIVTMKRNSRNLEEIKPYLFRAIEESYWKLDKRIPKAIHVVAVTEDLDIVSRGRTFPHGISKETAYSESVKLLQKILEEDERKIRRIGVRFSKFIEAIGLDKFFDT

[2] = molecular target: T2, Dpo4 Y108W (Sulfolobus solfataricus, UniProt Q97W02 1-352, C31S;Y108W); experiment: steady-state Trp fluorescence
T2 sequence: T1 sequence with Y108W, W274Y

[3] = molecular target: T3, Dpo4 Y108W-K329C-CPM (Sulfolobus solfataricus, UniProt Q97W02 1-352, C31S;Y108W;K329C); experiment: stopped-flow FRET
T3 sequence: T1 sequence with Y108W, W274Y, K329C

Measured: binding result

B1: DNAOH 21/30-mer (dsDNA)
DNA 1: CGAGCCGTCGCATCCTACCGC
DNA 2: GATGCTGCAGCGGTAGGATGCGACGGCTCG
binds: all assays above
